From IntAct's records for PubMed 19805280

B1: Protein DOA1 (Saccharomyces cerevisiae), P36037 (parent)
chain: MGYQLSATLKGHDQDVRDVVAVDDSKVASVSRDGTVRLWSKDDQWLGTVVYTGQGFLNSVCYDSEKELLLFGGKDTMINGVPLFATSGEDPLYTLIGHQGNVCSLSFQDGVVISGSWDKTAKVWKEGSLVYNLQAHNASVWDAKVVSFSENKFLTASADKTIKLWQNDKVIKTFSGIHNDVVRHLAVVDDGHFISCSNDGLIKLVDMHTGDVLRTYEGHESFVYCIKLLPNGDIVSCGEDRTVRIWSKENGSLKQVITLPAISIWSVDCMSNGDIIVGSSDNLVRIFSQEKSRWASEDEINELSTQVEKSTISSKTIEFDESKLSPYEILQSPGRKEGQIVVVKSPQGTIEAHQFSNSSWKKVGDVVGAGATGNDKKIEFEGKTYDYVFDVDIEDGKPPLKLPINVSDNPYTAADNFLARYELPMSYRDQVVQFILKNTNGISLDQPNDNASSSAVSPSKTSVMKVLPVKQYLIMENYNPDTIFNGIVKINSNEKTFDDEILAQIGGALHDIDESWELLLSFANTIRSNWEIKTPAYDIVRLIVKKLPYSSDIKDYIEEGLGNKNITLTMLTVRILVNCFNNENWGVKLLESNQVYKSIFETIDTEFSQASAKQSQNLAIAVSTLIFNYSALVTKGNSDLELLPIVADAINTKYGPLEEYQECEEAAYRLTVAYGNLATVEPTLRQFANSVTWLANIKRSYGNVPRFKDIFDDLS

Variants of: B1
Conditions: with cdc48_yeast CDC48, P25694
Chain of cdc48_yeast CDC48, P25694 (P25694 whole entry): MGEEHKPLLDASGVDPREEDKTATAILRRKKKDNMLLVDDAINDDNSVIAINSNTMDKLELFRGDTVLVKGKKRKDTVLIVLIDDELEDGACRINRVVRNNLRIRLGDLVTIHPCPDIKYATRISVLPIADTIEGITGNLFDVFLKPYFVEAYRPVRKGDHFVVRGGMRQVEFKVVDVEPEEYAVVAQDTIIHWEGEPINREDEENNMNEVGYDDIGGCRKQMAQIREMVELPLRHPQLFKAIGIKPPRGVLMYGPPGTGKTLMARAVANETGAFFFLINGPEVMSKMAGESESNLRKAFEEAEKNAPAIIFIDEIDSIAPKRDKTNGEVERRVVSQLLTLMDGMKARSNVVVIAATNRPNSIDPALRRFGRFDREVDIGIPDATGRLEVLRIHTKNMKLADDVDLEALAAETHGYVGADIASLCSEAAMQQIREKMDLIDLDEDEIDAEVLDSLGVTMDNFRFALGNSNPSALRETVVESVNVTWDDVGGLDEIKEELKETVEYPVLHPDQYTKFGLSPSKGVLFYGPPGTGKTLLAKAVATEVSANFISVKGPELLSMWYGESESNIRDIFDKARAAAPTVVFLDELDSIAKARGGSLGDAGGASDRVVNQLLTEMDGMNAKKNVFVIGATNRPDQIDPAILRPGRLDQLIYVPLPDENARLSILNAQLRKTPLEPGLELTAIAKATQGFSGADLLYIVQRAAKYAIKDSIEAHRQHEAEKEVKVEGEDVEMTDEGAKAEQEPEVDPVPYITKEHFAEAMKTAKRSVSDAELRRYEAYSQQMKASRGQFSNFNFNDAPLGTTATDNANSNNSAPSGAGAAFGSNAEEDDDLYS

Row | effect of a mutation on the interaction | Variant
1 | disrupting interaction | R541A;R669A

Variants of: B1
Conditions: with cdc48_yeast CDC48, P25694
Remark: another data set of the same source

Row | effect of a mutation on the interaction | Variant
2 | decreasing interaction | N578A
3 | disrupting interaction | R541A
4 | decreasing interaction | R669A
